Target: PNKP (UniProt Q96T60)
Experiment: Ni-NTA co-purification of XRCC1-His complexes, immunoblot
Conditions: reference: wild-type XRCC1-His; sites S518,T519,T523

binding against the reference: weaker
Substance: XRCC1 (from UniProt P18887) XRCC1-His S518A/T519A/T523A
